In the supplement of paper PMC10126150 one finds switch fluorescence ratio data, which are given here for 78 sequences.

± gives the standard deviation of the averaged measurements.

This data set has as its system ATP. Description: switch fluorescence ratio, 500 uM ATP over buffer (Cy3 cluster intensity, sum of 5 cycles each) (fold (ratio)); higher = stronger signal-on switching upon ATP binding; sequences stand for … in TCGTCGGCAGCGTCAGATGTGTATAAGAGACAGTTTTTTTTTTTTTTTTTTTTTTTTT…TC. The conditions noted are these: aptamer strand: ATP DNA aptamer (quencher-CACCTGGGGGAGTATTGCGGAGGAAGG + anchor), 100 nM annealed; ATP concentration: 500 uM. The procedure, abridged: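 Cy3-labelled switching-strand clusters on a modified Illumina MiSeq flow-cell were annealed to 100 nM quencher-labelled ATP aptamer and imaged first in selection buffer, then after 15 min with 500 uM ATP at 22 °C. NaOH stripping and re-annealing separated each of five buffer/ATP cycles, and clusters outside 100-1000 RFU were excluded. The fluorescence ratio sums target-cycle Cy3 intensity over buffer-cycle Cy3 intensity per cluster and averages it per switch-domain sequence.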
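Note: ATP exposure 15 min at 22 °C before imaging.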

For the sequence TTGGTTTCCT, the switch fluorescence ratio was 1.02 ± 0.038.

For TTGTAAACGA, the switch fluorescence ratio is 1.01 ± 0.042.

For TTGTAACCAG, the switch fluorescence ratio came out at 1.0005 ± 0.001.

Turning to TTGTAAGATT, the switch fluorescence ratio is 0.987 ± 0.0048.

Take TTGTAAGTAG: the switch fluorescence ratio came to 0.979 ± 0.012.

On to TTGTAAGTTT, for which the switch fluorescence ratio stood at 0.985 ± 0.049.

TTGTAATAGG: the switch fluorescence ratio stood at 1.27 ± 0.4.

As for TTGTAATCAG, the switch fluorescence ratio turned out to be 0.966 ± 0.045.

For the sequence TTGTAATTAA, the switch fluorescence ratio was 0.9963 ± 0.0096.

On to TTGTACTACC, for which the switch fluorescence ratio stood at 1.1603 ± 0.00036.

Consider TTGTAGAAAA, for which the switch fluorescence ratio stood at 1.3 ± 0.37.

Regarding TTGTAGGCGA, the switch fluorescence ratio was 1.09 ± 0.0026.

With TTGTAGGTAT, the switch fluorescence ratio is 0.999 ± 0.069.

Take TTGTAGTCTT: the switch fluorescence ratio is 0.991 ± 0.022.

Regarding TTGTATATGG, the switch fluorescence ratio is 1.05 ± 0.022.

For the sequence TTGTATCAGT, the switch fluorescence ratio worked out at 1.01 ± 0.024.

As to TTGTATTCTT, the switch fluorescence ratio amounted to 1.04 ± 0.088.

Regarding TTGTATTTGG, the switch fluorescence ratio was 1.02 ± 0.043.

Turning to TTGTCCCTGC, the switch fluorescence ratio turned out to be 1.016 ± 0.0054.

As for TTGTCGGATT, the switch fluorescence ratio came to 0.991 ± 0.021.

For the sequence TTGTCTGGGG, the switch fluorescence ratio turned out to be 0.985 ± 0.03.

As for TTGTGAGTGG, the switch fluorescence ratio was 0.976 ± 0.017.

In the case of TTGTGCCTAT, the switch fluorescence ratio came to 1.005 ± 0.0071.

Consider TTGTGCGAGA, for which the switch fluorescence ratio came to 0.989 ± 0.013.

In the case of TTGTGGAAGC, the switch fluorescence ratio turned out to be 1.01 ± 0.025.

For the sequence TTGTGGCAAC, the switch fluorescence ratio was 1.24 ± 0.3.

Take TTGTGGGAAT: the switch fluorescence ratio worked out at 1.05 ± 0.077.

With TTGTGGGGGA, the switch fluorescence ratio came to 1.02 ± 0.046.

For the sequence TTGTGGTACG, the switch fluorescence ratio is 0.981 ± 0.041.

On to TTGTGGTGTT, for which the switch fluorescence ratio stood at 0.986 ± 0.023.

For the sequence TTGTGTAGGG, the switch fluorescence ratio was found to be 1.01 ± 0.017.

Take TTGTGTAGTC: the switch fluorescence ratio is 1.005 ± 0.0091.

As to TTGTGTC, the switch fluorescence ratio is 1.06 ± 0.023.

Turning to TTGTGTCTGC, the switch fluorescence ratio was found to be 0.999 ± 0.011.

Consider TTGTGTGGTG, for which the switch fluorescence ratio is 0.98 ± 0.011.

Take TTGTGTGTTT: the switch fluorescence ratio was found to be 0.989 ± 0.024.

As to TTGTGTTTTC, the switch fluorescence ratio stood at 0.9971 ± 0.006.

For the sequence TTGTTA, the switch fluorescence ratio is 0.964 ± 0.044.

For TTGTTAAATA, the switch fluorescence ratio amounted to 0.98 ± 0.011.

For TTGTTAAATT, the switch fluorescence ratio amounted to 0.98 ± 0.018.

Turning to TTGTTAGAAT, the switch fluorescence ratio was found to be 1.038 ± 0.0047.

Turning to TTGTTAGCCC, the switch fluorescence ratio was determined as 1.026 ± 0.0026.

As to TTGTTAGCCT, the switch fluorescence ratio was determined as 1.05 ± 0.019.

Turning to TTGTTAGGGC, the switch fluorescence ratio came to 1.07 ± 0.017.

Turning to TTGTTAGGGG, the switch fluorescence ratio was 0.986 ± 0.019.

For the sequence TTGTTATTAG, the switch fluorescence ratio is 1.03 ± 0.047.

For TTGTTATTTT, the switch fluorescence ratio came out at 1 ± 0.03.

In the case of TTGTTCAAGT, the switch fluorescence ratio came out at 0.998 ± 0.043.

For TTGTTCAGGG, the switch fluorescence ratio was 0.99 ± 0.013.

With TTGTTCGAGG, the switch fluorescence ratio is 0.988 ± 0.026.

Take TTGTTCGATG: the switch fluorescence ratio was 0.99 ± 0.025.

For the sequence TTGTTCGATT, the switch fluorescence ratio is 1 ± 0.034.

Consider TTGTTCGGGA, for which the switch fluorescence ratio turned out to be 1.016 ± 0.0094.

Take TTGTTCGGGG: the switch fluorescence ratio worked out at 1.03 ± 0.056.

Consider TTGTTCGGTA, for which the switch fluorescence ratio was 1.02 ± 0.016.

TTGTTCGTAG: the switch fluorescence ratio was 0.981 ± 0.034.

On to TTGTTGAGAA, for which the switch fluorescence ratio worked out at 0.995 ± 0.056.

Take TTGTTGAGAT: the switch fluorescence ratio was determined as 1.02 ± 0.035.

For TTGTTGAGGG, the switch fluorescence ratio is 1.014 ± 0.0042.

In the case of TTGTTGCTTT, the switch fluorescence ratio was 1.02 ± 0.03.

Turning to TTGTTGGCGA, the switch fluorescence ratio is 1.04 ± 0.023.

Regarding TTGTTGTTAG, the switch fluorescence ratio was determined as 1.0094 ± 0.00094.

Take TTGTTGTTGG: the switch fluorescence ratio stood at 1.01 ± 0.032.

On to TTGTTGTTTT, for which the switch fluorescence ratio amounted to 0.995 ± 0.035.

Take TTGTTTAGGT: the switch fluorescence ratio was determined as 1 ± 0.03.

For TTGTTTATTC, the switch fluorescence ratio worked out at 1.02 ± 0.071.

With TTGTTTGTAA, the switch fluorescence ratio came out at 1.04 ± 0.018.

In the case of TTGTTTGTCC, the switch fluorescence ratio worked out at 1.03 ± 0.058.

In the case of TTGTTTGTGT, the switch fluorescence ratio is 1.02 ± 0.03.

Take TTGTTTGTTC: the switch fluorescence ratio is 1.01 ± 0.034.

Regarding TTGTTTTATG, the switch fluorescence ratio stood at 0.998 ± 0.022.

For TTGTTTTTGT, the switch fluorescence ratio is 1.03 ± 0.032.

In the case of TTGTTTTTT, the switch fluorescence ratio came out at 1.03 ± 0.018.

As to TTGTTTTTTT, the switch fluorescence ratio came out at 1 ± 0.05.

As to TTTAAAAAAA, the switch fluorescence ratio was 1.02 ± 0.027.

Regarding TTTAAAAAAT, the switch fluorescence ratio came to 1.02 ± 0.035.

As for TTTAAAAGA, the switch fluorescence ratio is 1 ± 0.02.

As to TTTAAACCTT, the switch fluorescence ratio was 1.89 ± 1.2.
